In the DeepSol protein solubility set:

Assay: soluble on expression in E. coli; label from the status in PepcDB or PDB records

MAEEHHHHHHHHLEVLFQGPGRPKTHTVGSVAKVEQVKFDATSMHVKPQVAAQQKMVDDGSGEVQVWRIENLELVPVDSKWLGHFYGGDCYLLLYTYLIGEKQHYLLYVWQGSQASQDEITASAYQAVILDQKYNGEPVQIRVPMGKEPPHLMSIFKGRMVVYQGGTSRTNNLETGPSTRLFQVQGTGANNTKAFEVPARANFLNSNDVFVLKTQSCCYLWCGKGCSGDEREMAKMVADTISRTEKQVVVEGQEPANFWMALGGKAPYANTKRLQEENLVITPRLFECSNKTGRFLATEIPDFNQDDLEEDDVFLLDVWDQVFFWIGKHANEEEKKAAATTAQEYLKTHPSGRDPETPIIVVKQGHEPPTFTGWFLAWDPFKWSGIHVVPNLSPLSNN
soluble on expression in E. coli: soluble

MSLTGLFEPIAPQAPLAERLRPKSLDEVVGQRHLLGEGKPLRLAFTSGKLPSMILWGPPGVGKTTLARLIANTADAEFIPLSAVLAGIKDIREAVERAEHTLQQSGRRTILFVDEVHRFNKGQQDAFLPFVESGLITFIGATTENPSFEVNSALLSRAQVFVLNALSEDELKQLLERGKQEMQLDIPLTPEVVEQVLGYADGDARRLLNFVEGLFNAALTAGVTKIDAEFLQSTMASKLRRFDKGGEAFYDQISALHKSVRGSNPDAALYWFLRMLDGGADPLYLGRRIVRMAVEDIGIADPRAQTMALEACQIYERLGSPEGELALSNAVIYLAVAAKSNAAYMAYNQAKAFVASDKSRPVPLHLRNAPTKLMKDLNYGKEYRYAHNEPGAYAAGEDYFPDGLEAIQFYVPTQRGLEGKISEKMAHLRALDEEARSKEGHHHHHH
soluble on expression in E. coli: soluble

MIRAFLVVALASVAVFSAPIPEVPQNFDDIPAEYKGLIPAEVAEHLKAITAEEKAALKELAQNHKEYKTEEEFKAALKEKSPSLYEKAGKLEALLTAKFEKLDATAQALVKKIIAKGRELHQQYLAGDKPTLDSLKELAKGYIAEYKALSDDAKATITAEFPILTGFFQNEKIQAIVGQYVN
soluble on expression in E. coli: not soluble

SDSDSGEQSEGELSPGHESFNSKSLALQAQKKILSKMATMAVANLLTDDTSSEILDELYKASREYTKSKKEAHKIIKDVIKIALKIGILYRNHQFSPEEMETVERFKKKMNQAAMTVVSFYEVEYTFDRGILSELLLECRDLLHELVEHHLTMRSHGRIDHVFNHFADVDFLTELYGPSEDYRLNLRKICDGINKLLDEGTL
soluble on expression in E. coli: soluble

MPKVNLYATFRDLTGKSQLELPGATVGEVLENLVRAYPALKEELFEGEGLAERVSVFLEGRDVRYLQGLSTPLSPGATLDLFPPVAGGGFERTFGAFPPWLLERYLEEWGGTREGEGVYRLPGAVVRFREVEPLKVGSLSIPQLRVEVEGEEAERWFERIAFAASRGGG
soluble on expression in E. coli: soluble

MDPLEALQKHVQRPEEFPLREVTVSGISYVAFGDYAYKKDTETSLQIYGKSDEFYSLESLVVFLKYSHENHGVYVKEAAAAGVRAVTRIDRKNVTEYLQGDRTDFPALMNQVNPLSLRQLLHSSEPEAKKPRLDGEAAGEPMDTSTSAEICSKIPIFLKINSIFFPDEPQESAVSAAKKEVEIRALNDNLTKDRIAEMRRKRQSHREKGIVTIETTFPQKPDFLIKKFQFFSESLSTLTSASLPKTRIHKTRENVMLGARDLSNVLDIITSAQRQWDLNEKKEKVAAVHATNLSKDQSGAAGGQQQRSGYSRYAQEAFAHEKTKEIQTEGSFIGSNFSSIKQGHHAVQKAPDAPPGRPPLAKPIQLLTSSTATSSGSSAAQNGSKRTSRSPIIIVPSAMNTMINLYNVRDILQNFSYVPVDQRRKETNKKPVDLAIQRQKNGVTYNIRVIDNAEKLANDDWDRVIAVFVMGVAWQFKGWKWNGNPTDIFTHIPAFHFHVDQDKPVAQVMQWNVHKIPVSATKRHMDKARFSQVWETIENFVRKNKPHLTARLGL
soluble on expression in E. coli: not soluble

MGSDKIHHHHHHAAAPAFSALGDTASSQARHIATVFPGRMTGTPPEMLSADYLRQQFALMGYQSDVRSFNTRYIYTDSNQRKNWHNATGSTVIAAHEGKVRQQIIIMAHLDTYAPQSDKDVENNLGGLTLQGIDDNAMGLGVLLELAEHLKNVPTRYGIRFIATSGEEEGRLGAQNLLQRMSEAEKKNTLLVINLDNLVVGDKLYFNSGRSTPASVRKLTRDRALAIARSKGIAAYTNPGLNPAYPKGTSCCNDASVFDNAGIPVLSVEATNWSLGKKDGYQQRSKSASFPQGTSWHDVQLDNQQYIDHALPGRIEHRGREVVKVMLPLVKELAKVEKKS
soluble on expression in E. coli: not soluble

MMKKEKELLVAIASQKGGVGKSVFTVLLASVLHYRKDVRVAVVDCDSPQHSIALMRERDMENVMKNDDLKVNLYRQYERIRKPAYPVIKSDPEKGVEDLRRYMDEKGETFDIVLFDLPGTLRSEGVVHTVAAMDYIFVPLKADNIVMQSSLQFTKVLEEELIAKGNCNLKGIRLFWNMVDRRGRKNLYDAWNRVIHRMGLRLLSSHIPNTLRYNKEADPVCKGVFRSTLFPPDPRQEKDSGLPELVEAAFFGRDPGITLL
soluble on expression in E. coli: not soluble

MNYFNVGKIVNTQGLQGEMRVLSVTDFAEERFKKGAELVLFDEKDQFVQTVTIASHRKQKNFDIIKFKDMYHINTIEKYKGYSLKVAEEDLNDLDDGEFYYHEIIGLEVYEGDSLVGTIKEILQPGANDVWVVKRKGKRDLLLPYIPPVVLNVDIPSKRVDVEILEGLDDEDLEHHHHHH
soluble on expression in E. coli: soluble

MKITHCKLKKKVQKELLRFFVLEVTARSAADILGIHPNSAVLFYRKIRMVISHYLALAANEVFEGSVELDESYFGGRRKGKRGRGAAGKVVVFGILKRNGRVYTVVVDNAKSDTLMPVIKQKIMPDSIVYTDSLSSYDKLDVSGFIHYRINHSKEFADRQNHINGIENFWNQAKRVLRK
soluble on expression in E. coli: not soluble

MSTPHTPKPGPRPGAVPGPRPGAHAARKVVAPNVSAMNQARAFGRVDDDGTVYLIRGGETKKIGSWQAGTPEEGLQHYIHRFEDLATEVALLESRLKSHPNDASHIKEKAGEIRDGLDDAAIIGDLDSLEKRLNSIIDGADSAGEKARELKQQLQEKAIEQKQKLVAEAEEIAEKSTDWKVAGDRIREILDEWKTIKGIDRKTDDELWKLYSRARDSFNRRRGSHFAELDRGRAAARRIKEDLVEKANILKESTDWNDTAHAFKELMNEWKAAGRAPRDVDDKLWAAFKGAQDYFFNARNAVNDQRDREFAANAEAKDALIDEYTPLIDPAQGLESAREKLRELQEKWEAIGYVPRNRVREYEEKIANLEKRVTEAADAQWRRTDPAAQARAAQFISKVEEFTAQAAEAEVKGNTKKAEQLRAQAQQWQEWADAAINAVENR
soluble on expression in E. coli: not soluble

MGHHHHHHSHMNCCGIWPFGKPGVPYKRLADVETDERMEMEIRLGMPPGVLAADLIRSTKDKQVLEQLYLLAVQANNLTEHIKRFTLGEIPEECKNVTRSQLEKLKSVQHIIWNTMISLAAGAISVDEATLPALLDKRAEETVALLEMEKIATAVKLDETAAWATDIAGIVSSQPLATPPSESPDQIALKKATQLSNAVY
soluble on expression in E. coli: soluble

MKPTNKAQDDDAVFALSTEVNHKLDLHQSSAEALRLAGVYTRQSCVLDLYHGYRSDDEDTEPDEEDGRLQTVREYHENGMLKLMRTFVRRLRRDATDPTAESSYYDRVVEEKHYDPSGICRVDMHFALGQPYLYRKHYYPNNRLKSEKVFFVEDEETMRARKVGHWRTYYENGNIQSEIIYNKDGVRCGFCKRYAIDGAIEWVKDYTREQEERLQAFNAKRGNLDLTVTDAARVLGLEGDWCSHVVNRTFRSKCAPLHPDWRRTAGDKAGETWEEEQRTEAFIRLSRAREVLLKFLETHPRECSCERGGA
soluble on expression in E. coli: not soluble

MGSDKIHHHHHHMPHSVPPLTDIGPLPTASTVRTVVFSDFDETYLAHSGTPEQVRSRQALENYLEDAGERHGLLFGWVTGSSLSSVLGKARRHGLRFLPHFIACSLGTELHVISEAGIQPEPGWQRRMLTTGEHLEGLAEEAFRELRTRGVPLVPQSCRAPGSRVISYYYFAQDPERDARQLALIRRTADRLSLGVNLSRCNPAAGDPDDCYDVDFLPRDCGKRHIVEYICRLYAVSEADAFAFGDSGNDLEMLTAVGRGLLVGNCTEEARARYPQVSARSHADAILSELRGVLP
soluble on expression in E. coli: not soluble

MGSDKIHHHHHHMAERFRPLAMAGLAALALVLAGCGDTLESFGGPTMGSTYSIKYVRGASAPDVQTAKAAVEAILAEVDRQMSTYRDDSLVSRFNALPAQSCMELPLPMLELLRYGGELSEQSQGAFDMTVEPLMNLWGFGPQARVEKVPSAEQIAAVRRDVGHRHLRIDGQRLCKDAAVQLDFDSIAAGYTVDAVGERLKELGVRSYLAEITGELKAEGRKPDGTPWRIAIEAPREGQRVAQQVLALDGYGVSTSGDYRNYFEENGQRYSHTFDPRTGAPIDHHLASVTVIDPSTRNADGLSTLLMVLGPEEGYRFAEKHRLAALFVSRQGNGFDSRTTPRYEQLFGNQGERP
soluble on expression in E. coli: not soluble

DNARTNPLKDLEFFLHSFRGLLEKAPVVVGITKMDIRSQPGIDVYHKYLAKHNLNVPVFEIDARKEDDVKQLVSAMLFSIDPGLEV
soluble on expression in E. coli: not soluble

MSLIQNVYINGLSGVSAQPTFDESYVDGNVQTETIPYRKVLDPDYKQYLNPTASRRFSRLIKMSLVAAQKSIAMADGVMPEAIITGTGLGCLEDTEKFLKALIENNESMLSPTAFIQSTHNTISGQIAMMITCYYPNYTYSNRYFTFESSLLDAVLMLLDKSCKHVLVNAADEIIPAVHTIVKRMHLWDRAEAIAHKNALAVTAGEGVVSMMLSSEKKESSVAAVKALELIYILPKDTSIEAHFKKFLAEASLTAADIDVLVLGMNGDAASDVYYEPVRNLFSTSTHVVYKHHFGESFTASSFAYWLGAQLIRHKKIDASVILSDKGHRAPKRVLLYNQSHNKYHSFCLLTDVDEGHHHHHH
soluble on expression in E. coli: not soluble

MGDAPSPEEKLHLITRNLQEVLGEEKLKEILKERELKIYWGTATTGKPHVAYFVPMSKIADFLKAGCEVTILFADLHAYLDNMKAPWELLELRVSYYENVIKAMLESIGVPLEKLKFIKGTDYQLSKEYTLDVYRLSSVVTQHDSKKAGAEVVKQVEHPLLSGLLYPGLQALDEEYLKVDAQFGGIDQRKIFTFAEKYLPALGYSKRVHLMNPMVPGLTGSKMSSSEEESKIDLLDRKEDVKKKLKKAFCEPGNVENNGVLSFIKHVLFPLKSEFVILRDEKWGGNKTYTAYVDLEKDFAAEVVHPGDLKNSVEVALNKLLDPIREKFNTPALKKLASAAYPDPSKQKPMAKGPAKNSEPEEVILEHHHHHH
soluble on expression in E. coli: soluble

MASQPNSSAKKKEEKGKNIQVVVRCRPFNLAERKASAHSIVECDPVRKEVSVRTGGLADKSSRKTYTFDMVFGASTKQIDVYRSVVCPILDEVIMGYNCTIFAYGQTGTGKTFTMEGERSPNEEYTWEEDPLAGIIPRTLHQIFEKLTDNGTEFSVKVSLLEIYNEELFDLLNPSSDVSERLQMFDDPRNKRGVIIKGLEEITVHNKDEVYQILEKGAAKRTTAATLMNAYSSRSHSVFSVTIHMKETTIDGEELVKIGKLNLVDLAGSENIGRSGAVDKRAREAGNINQSLLTLGRVITALVERTPHVPYRESKLTRILQDSLGGRTRTSIIATISPASLNLEETLSTLEYAHRAKNILNKPEVNQKL
soluble on expression in E. coli: soluble

MMNLHALPTSPRRWQCYDGGNFYQTRLRVSESPNMFKKILFPLVALFMLAGCAKPPTTIEVSPTITLPQQDPSLMGVTVSINGADQRTDQALAKVTRDNQIVTLTASRALRFLLQEVLEKQMTARGYMVGPNGPVNLQIIVSQLYADVSQGNVRYNIATKADIAIIATAQNGNKMTKNYRASYNVEGAFQASNKNIADAVNSVLTDTIADMSQDTSIHEFIKQNAR
soluble on expression in E. coli: not soluble

MNPFHELEPGPEVPEVVYALIEIPKGSRNKYELDKKTGLLKLDRVLYSPFFYPVDYGIIPQTWYDDGDPFDIMVIMREPVYPLTIIEARPIGIMKMEDSGDKDWKVLAVPVEDPYFNDWKDISDVPKAFLDEIAHFFQRYKELQGKTTKIEGWGNAEEAKREILRAIEMYKEKFGKEE
soluble on expression in E. coli: soluble
